Assay results reported in publication PMC5389673 (Nucleic Acids Research, 2016).

Target: the molecule itself
Assay: crystal structure

Protein	stoichiometry N
VapC1 toxin from Caulobacter crescentus CB15, full length, seleno-methionine substituted (natural protein, seleno-methionine in place of methionine) MAYVLDTNVAIHLRDGDPEVTTRVTALNGAILLSIISRVELEGGVYREAAQAGLRRSRLDVMLKVLPVLDFDGAAADEYRRIVESAGYSRRKVVDRMIAAQALAHRATFVTFNADDFRDIPGLSLLAW	2
VapB1 antitoxin from Caulobacter crescentus CB15, full length, seleno-methionine substituted (natural protein, UniProt Q9AC34 1-79, looked up, seleno-methionine in place of methionine) MARATGKTFRSGNSEAVRLPRDLAFGADVELTLIRSGDVLTIYPSKGSIADLVATLNQMPRPDSVEIRDEDLFPERPGL	2
